Measurements taken from paper PMC2444022.

Assays:
[1] = tested on: LysRS wild type (lysyl-tRNA synthetase) (Escherichia coli); assay: EMSA; settings: reference; gel-retardation buffer, pH and temperature not in material
[2] = tested on: LysRS(K130A) (Escherichia coli); assay: EMSA; settings: gel-retardation buffer, pH and temperature not in material
[3] = tested on: LysRS(T133A) (Escherichia coli); assay: EMSA; settings: gel-retardation buffer, pH and temperature not in material
[4] = tested on: LysN (anticodon-binding domain of LysRS) (Escherichia coli); settings: gel-retardation buffer, pH and temperature not in material; cited from earlier work

## tRNALys
[1]
  binding signal (fraction of WT bound): 1
[2]
  binding signal (fraction of WT bound): 0.35
[3]
  binding signal (fraction of WT bound): 1.17

## tRNALys (unlabeled competitor)
[4]
  Kd: 100 µM
